Measured values: US20260001914A1, “MACROCYCLIC PEPTIDES TARGETING KRAS” (Merck Sharp & Dohme LLC, priority 2022, published 2026)
*1 amine or outer side, *2 acyl side, *3 side chain or, on linkers, in order; H or OH if unused. Where a SMILES comes first, the peptide text is derived from it. Bridges are numbered along the chain shown (N, C = ends). Where no end group is shown, it is not given here. [ ]: non-standard residue; d: D form. X48 = CCCC[C@@H](/C=C\[C@@H](Cc1cccnc1)C(=O)[*:2])N[*:1]; Ala(pyrimidin-5-yl) = N[C@@H](Cc1cncnc1)C(=O)O; Phe(2-F) = N[C@@H](Cc1ccccc1F)C(=O)O; X1 = O=C(C12CC(CN[*:1])(C1)C2)[*:2]; NMeF = CN[C@@H](Cc1ccccc1)C(=O)O; PhLac = O=C(O)[C@@H](O)Cc1ccccc1; Ahp(2) = CCCCC[C@H](N)C(=O)O; NMeA = CN[C@@H](C)C(=O)O; Nle = CCCC[C@H](N)C(=O)O

B1: cyclo(F-R-Y-L-V-Ahp-NMeF-dC-C1Ac) (peptide)
peptide: {CH2CO}-FRYLV[Ahp(2)][NMeF][dC]
modifications: thioether N-8 (inferred); not fully specified (C-terminus); printed as cyclo(F-R-Y-L-V-Ahp-NMeF-dC-C1Ac)

biological target: Biotin-labeled KRAS-G12D protein (UniProt P01116-2 1-169, limits assumed, biotin label (site not stated); loaded with BODIPY-GDP); assay: cell-based or functional assay; conditions: not given

SOS assay EC50 [nM] | Molecule
7.56 | cyclo(F-baceNva-d3Pal-cBuA-Phe2F-Nle-NMe3Pal-amBCP) (peptide)
2.69 | cyclo(FLac-NMeA-PyrimAla-cPrA-4Pal2F-hL-NMeF-amBCP) (peptide)
3.72 | cyclo(FLac-NMeA~PyrimAla-cPrA-3Pal6F-hL-NMeF-amBCP) (peptide)
935 | cyclo(INal-R-4Pal-L-TyrOMe-Nva-NMeF-dC1-C1Ac) (peptide)
2650 | cyclo(INal-R-K-Nle-Phe3AcOH-Nle-NMeF-Cysteamine-C1Ac) (peptide)
8470 | cyclo(NMeF-NMeDabN3-3Pal-Nle-Phe2F-Nle-NMe3Pal-c3amCblc) (peptide)
7650 | cyclo(NMeF-NMeNvaImid-3Pal-Nle-Phe2F-Nle-NMe3Pal-tamcPr) (peptide)
3220 | cyclo(NMeF-NMeNvaImid-Phe4cPyrr-Nle-Phe2F-Nle-NMe3Pal-amBCP) (peptide)
7760 | cyclo(NMeF-NMeNvalmid-3Pal-Nle-Phe2F-LysN3-NMe3Pal-c3amCb1c) (peptide)
1220 | cyclo(NMeF-NMeNvalmid-3Pal-Nle-Phe2F-Nle-NMe3Pal-c3amCblc) (peptide)
1460 | cyclo(NMeF-NMeNvalmid-3Pal-dNle-Phe2F-Nle-NMe3Pal-c3amCblc) (peptide)
3750 | cyclo(Phe3F-R-4Pal-L-TyrOMe-Nva-NMeF-dC1-C1Ac) (peptide)
3010 | cyclo(Phe4F-R-4Pal-L-TyrOMe-Nva-NMeF-Cysteamine-C1Ac) (peptide)
1170 | cyclo(Phe4F-R-4Pal-L-TyrOMe-Nva-NMeF-dC1-C1Ac) (peptide)
70.2 | cyclo(Phe4F-R-4Pal-L-TyrOMe-Nva-NMeF-dC5-C1Ac) (peptide)
369 | cyclo(Phe4F-R-4Pal-L-TyrOMe-Nva-NMeF-dC6-C1Ac) (peptide)
432 | cyclo(Phe4F-R-4Pal-Nle-TyrOMe-Nle-NMeF-Cysteamine-C1Ac) (peptide)
2060 | cyclo(Phe4F-R-4Pal-hIle-TyrOMe-Nva-NMeF-dC-C1Ac) (peptide)
3530 | cyclo(Phe4F-R-LysN3-Nle-Y-Nle-NMeF-Cysteamine-C1Ac) (peptide)
1060 | cyclo(Phe4NH2-Om-3Pal-cBuA-TyrOMe-Nle-NMe3Pal-daMeC1-C1Ac) (peptide)
2770 | cyclo(Phe34F2-R-4Pal-L-TyrOMe-Nva-NMeF-dC1-C1Ac) (peptide)
2130 | cyclo(TyrOMe-Orn~3Pal-cBuA-Phe2F-Nle-NMe3Pal-daMeC1-C1Ac) (peptide)
659 | cyclo(Y-Orn-3Pal-cBuA-TyrOMe-Nle-NMe3Pal-daMeC1-C1Ac) (peptide)
6680 | cyclo(Y-hS-3Pal-cBuA-Phe2F-Nle-NMe3Pal-daMeC1-C1Ac) (peptide)
222 | cyclo(dF-R-3Pal-Nie-TyrOMe-Nle-NMeF-c3amCblc) (peptide)
7140 | B1

biological target: phosphorylation levels of ERK1/2 in AsPC-1 (homozygous KRAS-G12D) cells (Homo sapiens, UniProt P01116, G12D); assay: Cellular phospho-ERK assay in AsPC-1 cells (Alpha Screen), assay medium without fetal bovine serum; format: cell-based; conditions: phospho-ERK AlphaScreen, 18 h;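 note: signal taken as phospho-ERK over total ERK per well, both detected in one multiplex bead assay, EC50 from four-parameter logistic fit of dose-response curves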

Molecule | EC50 [nM]
CCCC[C@@H]1NC(=O)[C@H](Cc2ccccc2F)NC(=O)C(CC2CC(F)(F)C2)NC(=O)[C@H](Cc2cncnc2)NC(=O)[C@H](C)N(C)C(=O)[C@H](Cc2ccccc2)OC(=O)C23CC(CNC(=O)[C@H](Cc4cccnc4)N(C)C1=O)(C2)C3 (single isomer, unassigned) [compound 122, cyclo(FLac-NMeA-PyrimAla-rF2Cba-Phe2F-Nle-NMe3Pal-amBCP)] | > 50800
CCCC[C@@H]1NC(=O)[C@H](Cc2ccccc2F)NC(=O)C(CC2CC(F)(F)C2)NC(=O)[C@H](Cc2cncnc2)NC(=O)[C@H](C)N(C)C(=O)[C@H](Cc2ccccc2)OC(=O)C23CC(CNC(=O)[C@H](Cc4cccnc4)N(C)C1=O)(C2)C3 (single isomer, unassigned) [compound 123, cyclo(FLac-NMeA-PyrimAla-rF2Cba-Phe2F-Nle-NMe3Pal-amBCP)] | > 50800
CON=C1C[C@@H](Cc2ccccc2)C(=O)N(C)[C@@H](C)C(=O)N[C@@H](Cc2cncnc2)C(=O)N[C@@H](CC2CC2)C(=O)N[C@@H](Cc2ccccc2F)C(=O)N[C@@H](CCC(C)(F)F)C(=O)N(C)[C@@H](Cc2ccccc2)C(=O)NCC23CC1(C2)C3 (single isomer, unassigned) [compound 177, cyclo(CPhe-NMeA-PyrimAla-cPrA-Phe2F-Nle3F2-NMeF-MeOximamBCP)] | 3400
CON=C1C[C@@H](Cc2ccccc2)C(=O)N(C)[C@@H](C)C(=O)N[C@@H](Cc2cncnc2)C(=O)N[C@@H](CC2CC2)C(=O)N[C@@H](Cc2ccccc2F)C(=O)N[C@@H](CCC(C)(F)F)C(=O)N(C)[C@@H](Cc2ccccc2)C(=O)NCC23CC1(C2)C3 (single isomer, unassigned) [compound 178, cyclo(CPhe-NMeA-PyrimAla-cPrA-Phe2F-Nle3F2-NMeF-MeOximamBCP)] | 128
CCCC[C@@H]1NC(=O)[C@H](Cc2ccc(C(F)(F)F)nc2)NC(=O)[C@H](CCCn2ccnc2)N(C)C(=O)[C@H](Cc2ccccc2)OC(=O)C23CC(CNC(=O)[C@H](Cc4ccccc4)N(C)C(=O)[C@H](CCCC)NC(=O)[C@H](Cc4ccccc4F)NC1=O)(C2)C3 (single isomer, unassigned) [compound 218, cyclo(FLac-NMeNvalmid-4CF33Pal-Nle-Phe2F-Nle-NMeF-amBCP)] | > 50800
CCCC[C@@H]1NC(=O)[C@H](Cc2ccc(C(F)(F)F)nc2)NC(=O)[C@H](CCCn2ccnc2)N(C)C(=O)[C@H](Cc2ccccc2)OC(=O)C23CC(CNC(=O)[C@H](Cc4ccccc4)N(C)C(=O)[C@H](CCCC)NC(=O)[C@H](Cc4ccccc4F)NC1=O)(C2)C3 (single isomer, unassigned) [compound 219, cyclo(FLac-NMeNvaImid-4CF33Pal-Nle-Phe2F-Nle-NMeF-amBCP)] | > 50800
CCCC[C@@H]1NC(=O)[C@H](Cc2cncnc2)NC(=O)[C@H](CCCn2ccnc2)N(C)C(=O)[C@H](Cc2ccccc2)OC(=O)C23CC(CNC(=O)[C@H](Cc4ccccc4)N(C)C(=O)[C@H](CCCC)NC(=O)[C@H](Cc4ccccc4F)NC1=O)(C2)C3 (single isomer, unassigned) [compound 222, cyclo(FLac-NMeNvalmid-PyrimAla-Nle-Phe2F-Nle-NMeF-amBCP)] | > 50800
CCCC[C@@H]1NC(=O)[C@H](Cc2cncnc2)NC(=O)[C@H](CCCn2ccnc2)N(C)C(=O)[C@H](Cc2ccccc2)OC(=O)C23CC(CNC(=O)[C@H](Cc4ccccc4)N(C)C(=O)[C@H](CCCC)NC(=O)[C@H](Cc4ccccc4F)NC1=O)(C2)C3 (single isomer, unassigned) [compound 223, cyclo(FLac-NMeNvalmid-PyrimAla-Nle-Phe2F-Nle-NMeF-amBCP)] | 11100
CCCC[C@H]1/C=C\[C@@H](Cc2cccnc2)C(=O)NCC23CC(C2)(C3)C(=O)O[C@@H](Cc2ccccc2)C(=O)N(C)[C@@H](C)C(=O)N[C@@H](Cc2cncnc2)C(=O)N[C@@H](CCCC)C(=O)N[C@@H](Cc2ccccc2F)C(=O)N1 [SEQ ID NO: 137, cyclo(FLac-NMeA- PyrimAla-Nle-Phe2F- Nlecalken3Pal-amBCP)] (cyclo([NMeA][Ala(pyrimidin-5-yl)][Nle][Phe(2-F)][X48][X1][PhLac])) | 11200
